From article PMC3272004

Tests used:
[1] = molecular target: GST-tagged histone H3 tail (UniProt P61830); experiment: pull-down; GST-H3 tail or GST-H4 tail immobilised on glutathione beads; in vitro translated [35S]-Gro variants; overnight at 4°C in HEMNK buffer (40 mM HEPES pH 7.5, 5 mM MgCl2, 0.2 mM EDTA, 1 mM DTT, 0.5% NP-40, 0.1 M KCl); autoradiography
[2] = molecular target: GST-tagged histone H4 tail (UniProt P02309); experiment: as above

“Gro^ΔCR, Gro deletion variant lacking the entire central region (GP, CcN and SP domains), untagged (from UniProt P16371 1-730) (natural protein)” was tested, and the fold reduction of binding against Gro^WT [1] was greater than 4 fold and the fold reduction of binding against Gro^WT [2] was greater than 4 fold.
